Data on two molecules can be found in doi:10.1101/2020.08.07.234443 (bioRxiv, 2020).

Numbering of substitutions follows the chain as printed.

The series “SAXS” concerns the molecule itself. Nature of the series: SAXS.
Another series has as its target T1, eIF4G1_(1-249) (S. cerevisiae, UniProt P39935 1-249).
T1 sequence (looked up): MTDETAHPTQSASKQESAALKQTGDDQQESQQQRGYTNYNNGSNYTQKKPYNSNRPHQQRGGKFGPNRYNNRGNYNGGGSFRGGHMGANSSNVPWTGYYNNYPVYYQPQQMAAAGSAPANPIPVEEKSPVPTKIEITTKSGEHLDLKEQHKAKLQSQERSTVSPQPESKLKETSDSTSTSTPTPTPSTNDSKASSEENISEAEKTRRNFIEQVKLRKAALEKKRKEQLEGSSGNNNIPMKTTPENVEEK
Nature of the series: NMR intermolecular paramagnetic relaxation enhancement.

B1: Pab1 RRM12 (domain or fragment)
chain: not shown
On to B1, for which, in the series “SAXS”, the “stoichiometry N” value worked out at 2.

B2: spin-labeled eIF4G1_(1-249) Q109C (domain or fragment, S. cerevisiae, UniProt P39935 1-249, looked up)
chain: T1 sequence (looked up) with Q109C
modifications: 4-(2-iodoacetamido)-TEMPO nitroxyl spin label on C109
For the molecule B2, in the series with eIF4G1_(1-249), the binding result was “binds”.
